Data as given in patent US20180237490A1 (HANMI PHARM, published 2018).
Positions of bridges follow the written chain, without caps; N, C: chain ends. Non-standard residues stand in square brackets, D forms with d. No end group written: not given here. *: point of attachment. Acetyl(2-(4-imidazolyl)) = O=C(Cc1c[nH]cn1)*; Aib = CC(C)(N)C(=O)O

The binders below were run against human GLP-1 receptor (human) (UniProt P43220) (assay: cell-based or functional assay).
human GLP-1 receptor (human), sequence (P43220 24-463): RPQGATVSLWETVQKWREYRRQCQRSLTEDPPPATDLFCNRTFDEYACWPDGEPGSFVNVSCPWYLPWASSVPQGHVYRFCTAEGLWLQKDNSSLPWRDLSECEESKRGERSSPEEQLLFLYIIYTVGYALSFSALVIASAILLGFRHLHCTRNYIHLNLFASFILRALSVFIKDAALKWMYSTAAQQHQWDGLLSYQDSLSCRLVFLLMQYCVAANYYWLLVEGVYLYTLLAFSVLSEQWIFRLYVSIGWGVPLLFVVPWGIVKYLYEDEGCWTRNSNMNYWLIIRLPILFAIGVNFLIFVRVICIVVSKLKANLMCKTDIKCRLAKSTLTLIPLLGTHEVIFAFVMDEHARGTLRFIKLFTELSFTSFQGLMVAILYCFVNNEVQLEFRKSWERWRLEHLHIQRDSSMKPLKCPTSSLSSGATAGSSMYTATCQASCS
With [Acetyl(2-(4-imidazolyl))]SQGTFTSDYSRYLDEEAVRLFIEWIRNGGPSSGAPPPSK [oxyntomodulin analog (SEQ ID NO: 18)] the EC50 (nM), cAMP, CHO/GLP-1R was 96.3 nM.
Work on [Acetyl(2-(4-imidazolyl))]SQGTFTSDYSKYLDERRAQDFVAWLKNTGPSSGAPPPS [oxyntomodulin analog (SEQ ID NO: 3)] yielded an EC50 (nM), cAMP, CHO/GLP-1R of over 1000 nM.
[Acetyl(2-(4-imidazolyl))]SQGTFTSDLSRQLEEEAVRLFIEWLMNK [oxyntomodulin analog (SEQ ID NO: 8)] was tested, and the EC50 (nM), cAMP, CHO/GLP-1R was 420 nM.

The binders below were run against human glucagon receptor (human) (UniProt P47871) (assay: cell-based or functional assay).
human glucagon receptor (human), sequence (P47871 26-477): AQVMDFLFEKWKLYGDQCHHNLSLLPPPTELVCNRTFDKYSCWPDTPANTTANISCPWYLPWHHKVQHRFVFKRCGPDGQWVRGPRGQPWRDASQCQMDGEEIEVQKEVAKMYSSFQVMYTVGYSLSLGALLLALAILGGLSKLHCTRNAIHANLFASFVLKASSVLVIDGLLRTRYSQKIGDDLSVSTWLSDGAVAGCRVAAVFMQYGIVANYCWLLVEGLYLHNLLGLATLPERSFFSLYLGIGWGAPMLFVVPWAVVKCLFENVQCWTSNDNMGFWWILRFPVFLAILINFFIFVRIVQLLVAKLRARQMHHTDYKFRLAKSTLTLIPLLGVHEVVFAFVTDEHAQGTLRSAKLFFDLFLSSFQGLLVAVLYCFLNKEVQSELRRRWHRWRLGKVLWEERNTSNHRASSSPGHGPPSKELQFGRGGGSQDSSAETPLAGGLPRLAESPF
For [Acetyl(2-(4-imidazolyl))]SQGTFTSDYSRYLDEEAVRLFIEWIRNGGPSSGAPPPSK [oxyntomodulin analog (SEQ ID NO: 18)], the EC50 (nM), cAMP, CHO/GCGR was over 1000 nM.
With [Acetyl(2-(4-imidazolyl))]SQGTFTSDYSKYLDERRAQDFVAWLKNTGPSSGAPPPS [oxyntomodulin analog (SEQ ID NO: 3)] the EC50 (nM), cAMP, CHO/GCGR was 638 nM.
In the case of [Acetyl(2-(4-imidazolyl))]SQGTFTSDLSRQLEEEAVRLFIEWLMNK [oxyntomodulin analog (SEQ ID NO: 8)], the EC50 (nM), cAMP, CHO/GCGR is reported as over 1000 nM.

What follows are binders tested against human glucagon receptor (human, UniProt P47871 26-477) (assay: cell-based or functional assay).
human glucagon receptor, sequence (P47871 26-477): as the sequence (P47871 26-477) above
With Y[Aib]QGTFTSDYSKYLDEKRAKEFVQWLMNTC (bridge 16-20) [oxyntomodulin analog (SEQ ID NO: 34)] the “EC50 (nM), cAMP, CHO/GCGR” value was 1.04 nM.
For H[Aib]QGTFTSDYSKYLDEKRAKEFVQWLMNTC (bridge 16-20) [oxyntomodulin analog (SEQ ID NO: 25)], the “EC50 (nM), cAMP, CHO/GCGR” value was 1.3 nM.
In the case of H[Aib]QGTFTSDYSKYLDEKRAKEFVQWLMNTC [oxyntomodulin analog (SEQ ID NO: 24)], the “EC50 (nM), cAMP, CHO/GCGR” value is reported as 6.95 nM.
